T1: LIN7C, Q9NUP9
T1 sequence (Q9NUP9 88-185, limits assumed, looked up): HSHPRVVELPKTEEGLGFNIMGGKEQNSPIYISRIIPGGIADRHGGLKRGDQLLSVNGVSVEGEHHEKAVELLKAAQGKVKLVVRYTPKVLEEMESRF

T2: SNTG1, Q9NSN8
T2 sequence (Q9NSN8 52-150, limits assumed, looked up): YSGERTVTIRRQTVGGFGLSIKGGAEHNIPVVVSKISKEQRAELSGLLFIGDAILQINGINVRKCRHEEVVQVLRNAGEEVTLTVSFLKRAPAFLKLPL

T3: DFNB31_3, Q9P202
T3 sequence (Q9P202 811-907, limits assumed, looked up): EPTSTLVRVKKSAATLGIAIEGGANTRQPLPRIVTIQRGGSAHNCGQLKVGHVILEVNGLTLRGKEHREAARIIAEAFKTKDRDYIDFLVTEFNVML

T4: MPDZ_10, O75970
T4 sequence (O75970 1624-1722, limits assumed, looked up): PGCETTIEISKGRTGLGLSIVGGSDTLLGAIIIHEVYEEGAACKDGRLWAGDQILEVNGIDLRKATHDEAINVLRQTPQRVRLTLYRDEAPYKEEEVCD

T5: MPDZ_12, O75970
T5 sequence (O75970 1857-1958, limits assumed, looked up): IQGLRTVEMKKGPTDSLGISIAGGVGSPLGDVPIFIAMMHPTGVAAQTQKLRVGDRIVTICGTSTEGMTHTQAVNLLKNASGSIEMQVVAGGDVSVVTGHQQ

T6: NHERF3_1, Q5T2W1
T6 sequence (Q5T2W1 4-100, limits assumed, looked up): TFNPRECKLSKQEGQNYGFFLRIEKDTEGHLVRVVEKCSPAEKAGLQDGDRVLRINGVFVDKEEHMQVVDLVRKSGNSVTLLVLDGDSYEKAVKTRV

T7: RAPGEF6, Q8TEU7
T7 sequence (Q8TEU7 525-625, limits assumed, looked up): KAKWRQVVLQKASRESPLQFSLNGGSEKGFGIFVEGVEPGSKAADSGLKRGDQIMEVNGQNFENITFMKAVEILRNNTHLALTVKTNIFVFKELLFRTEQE

T8: APBA3_1, O96018
T8 sequence (O96018 389-490, limits assumed, looked up): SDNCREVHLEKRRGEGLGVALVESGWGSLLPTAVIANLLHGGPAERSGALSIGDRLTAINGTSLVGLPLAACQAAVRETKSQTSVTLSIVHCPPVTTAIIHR

T9: SNTA1, Q13424
T9 sequence (Q13424 82-180, limits assumed, looked up): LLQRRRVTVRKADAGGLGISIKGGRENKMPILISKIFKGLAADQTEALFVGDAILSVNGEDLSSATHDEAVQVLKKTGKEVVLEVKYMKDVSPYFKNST

T10: PARD3B_1, Q8TEW8
T10 sequence (Q8TEW8 196-299, limits assumed, looked up): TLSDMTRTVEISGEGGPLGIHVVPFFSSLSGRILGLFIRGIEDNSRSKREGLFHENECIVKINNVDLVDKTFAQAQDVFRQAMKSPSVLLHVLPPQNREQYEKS


Columns and labels:
Experiment in all cases: holdup assay
Set-up in all cases: key: below the threshold = too weak to quantify, mostly under pKd 3.1 to 4
Conditions in all cases: plain residues with an end cap or a label only (N-terminal biotin on a linker: ado-ado)
LIN7C, Q9NUP9 = molecular target: T1, LIN7C, Q9NUP9
TJP1_3, Q07157 = molecular target: TJP1_3, Q07157
TJP1_3, Q07157, sequence (Q07157 416-512): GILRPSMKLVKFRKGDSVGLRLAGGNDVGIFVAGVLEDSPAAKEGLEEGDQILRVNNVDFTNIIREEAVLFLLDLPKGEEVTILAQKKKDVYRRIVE

DLG5_1, Q8TDM6 = molecular target: DLG5_1, Q8TDM6
DLG5_1, Q8TDM6, sequence (Q8TDM6 617-713): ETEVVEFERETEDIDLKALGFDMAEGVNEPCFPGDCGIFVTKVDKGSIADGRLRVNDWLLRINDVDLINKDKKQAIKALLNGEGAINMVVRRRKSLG

SNTG1, Q9NSN8 = molecular target: T2, SNTG1, Q9NSN8
GRID2IP_1, A4D2P6 = molecular target: GRID2IP_1, A4D2P6
GRID2IP_1, A4D2P6, sequence (A4D2P6 1-87): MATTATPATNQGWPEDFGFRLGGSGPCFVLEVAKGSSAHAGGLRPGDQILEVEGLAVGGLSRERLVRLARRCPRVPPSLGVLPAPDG

CASK, O14936 = molecular target: CASK, O14936
CASK, O14936, sequence (O14936 487-570): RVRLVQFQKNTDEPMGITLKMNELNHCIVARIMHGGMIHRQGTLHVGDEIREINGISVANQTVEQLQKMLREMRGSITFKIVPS

SCRIB_1, Q14160 = molecular target: SCRIB_1, Q14160
SCRIB_1, Q14160, sequence (Q14160 718-814): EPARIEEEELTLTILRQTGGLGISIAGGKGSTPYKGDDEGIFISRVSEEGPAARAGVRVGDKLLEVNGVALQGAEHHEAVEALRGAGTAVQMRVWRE

DFNB31_3, Q9P202 = molecular target: T3, DFNB31_3, Q9P202
MPDZ_10, O75970 = molecular target: T4, MPDZ_10, O75970
GIPC2, Q8TF65 = molecular target: GIPC2, Q8TF65
GIPC2, Q8TF65, sequence (Q8TF65 112-203): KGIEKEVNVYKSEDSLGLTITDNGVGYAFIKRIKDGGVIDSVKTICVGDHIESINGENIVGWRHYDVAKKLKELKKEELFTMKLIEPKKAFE

FRMPD2_2, Q68DX3 = molecular target: FRMPD2_2, Q68DX3
FRMPD2_2, Q68DX3, sequence (Q68DX3 944-1038): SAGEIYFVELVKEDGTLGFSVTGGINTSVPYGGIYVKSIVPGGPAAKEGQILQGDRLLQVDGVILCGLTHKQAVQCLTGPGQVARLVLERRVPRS

MPDZ_12, O75970 = molecular target: T5, MPDZ_12, O75970
IL16_4, Q14005 = molecular target: IL16_4, Q14005
IL16_4, Q14005, sequence (Q14005 1229-1329): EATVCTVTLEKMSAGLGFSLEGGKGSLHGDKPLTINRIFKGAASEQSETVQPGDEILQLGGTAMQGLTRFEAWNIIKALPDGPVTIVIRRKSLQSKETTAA

DLG2_3, Q15700 = molecular target: DLG2_3, Q15700
NHERF3_1, Q5T2W1 = molecular target: T6, NHERF3_1, Q5T2W1
Inadl_1, Q8NI35 = molecular target: Inadl_1, Q8NI35
Inadl_1, Q8NI35, sequence (Q8NI35 113-229): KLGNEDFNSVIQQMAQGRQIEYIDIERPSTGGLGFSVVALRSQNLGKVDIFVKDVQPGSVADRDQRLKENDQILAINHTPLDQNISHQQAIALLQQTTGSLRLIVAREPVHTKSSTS

RAPGEF6, Q8TEU7 = molecular target: T7, RAPGEF6, Q8TEU7
GRIP2_6, Q9C0E4 = molecular target: GRIP2_6, Q9C0E4
GRIP2_6, Q9C0E4, sequence (Q9C0E4 648-740): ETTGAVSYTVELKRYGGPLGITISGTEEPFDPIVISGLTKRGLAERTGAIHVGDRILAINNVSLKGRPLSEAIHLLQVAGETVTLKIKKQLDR

LDB3, O75112 = molecular target: LDB3, O75112
LDB3, O75112, sequence (O75112 1-94): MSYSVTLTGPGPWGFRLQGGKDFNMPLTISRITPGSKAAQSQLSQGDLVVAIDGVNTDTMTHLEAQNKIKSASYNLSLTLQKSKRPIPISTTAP

FRMPD4, Q14CM0 = molecular target: FRMPD4, Q14CM0
FRMPD4, Q14CM0, sequence (Q14CM0 67-160): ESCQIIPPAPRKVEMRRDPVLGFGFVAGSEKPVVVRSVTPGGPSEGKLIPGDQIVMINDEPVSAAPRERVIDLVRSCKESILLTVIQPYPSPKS

GOPC, Q9HD26 = molecular target: GOPC, Q9HD26
APBA3_1, O96018 = molecular target: T8, APBA3_1, O96018
MAGI2_2, Q86UL8 = molecular target: MAGI2_2, Q86UL8
MAGI2_2, Q86UL8, sequence (Q86UL8 410-522): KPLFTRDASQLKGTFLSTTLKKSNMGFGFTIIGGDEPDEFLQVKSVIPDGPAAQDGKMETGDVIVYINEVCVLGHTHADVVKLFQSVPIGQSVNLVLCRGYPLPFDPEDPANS

SNTA1, Q13424 = molecular target: T9, SNTA1, Q13424
MAGI2_3, Q86UL8 = molecular target: MAGI2_3, Q86UL8
MAGI2_3, Q86UL8, sequence (Q86UL8 600-682): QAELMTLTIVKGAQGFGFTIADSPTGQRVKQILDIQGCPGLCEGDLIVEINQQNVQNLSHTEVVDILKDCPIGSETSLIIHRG

PARD3B_1, Q8TEW8 = molecular target: T10, PARD3B_1, Q8TEW8
NHERF2_2, Q15599 = molecular target: NHERF2_2, Q15599
NHERF2_2, Q15599, sequence (Q15599 142-238): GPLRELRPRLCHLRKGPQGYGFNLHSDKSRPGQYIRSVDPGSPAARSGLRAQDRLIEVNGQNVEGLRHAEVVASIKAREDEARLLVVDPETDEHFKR

DLG2_2, Q15700 = molecular target: DLG2_2, Q15700

| pKd (LIN7C, Q9NUP9) | pKd (TJP1_3, Q07157) | pKd (DLG5_1, Q8TDM6) | pKd (SNTG1, Q9NSN8) | pKd (GRID2IP_1, A4D2P6) | pKd (CASK, O14936) | pKd (SCRIB_1, Q14160) | pKd (DFNB31_3, Q9P202) | pKd (MPDZ_10, O75970) | pKd (GIPC2, Q8TF65) | pKd (FRMPD2_2, Q68DX3) | pKd (MPDZ_12, O75970) | pKd (IL16_4, Q14005) | pKd (DLG2_3, Q15700) | pKd (NHERF3_1, Q5T2W1) | pKd (Inadl_1, Q8NI35) | pKd (RAPGEF6, Q8TEU7) | pKd (GRIP2_6, Q9C0E4) | pKd (LDB3, O75112) | pKd (FRMPD4, Q14CM0) | Binder | also measured |
| --- | --- | --- | --- | --- | --- | --- | --- | --- | --- | --- | --- | --- | --- | --- | --- | --- | --- | --- | --- | --- | --- |
| below the threshold | below the threshold | below the threshold | below the threshold | below the threshold | below the threshold | below the threshold | below the threshold | below the threshold | below the threshold | below the threshold | below the threshold | 3.64 | below the threshold | below the threshold | below the threshold | below the threshold | below the threshold | below the threshold | 3.58 | TRKRSGEAAV [PFKM, P08237] | pKd (GOPC, Q9HD26): below the threshold; pKd (APBA3_1, O96018): below the threshold; pKd (MAGI2_2, Q86UL8): 4.09; pKd (SNTA1, Q13424): below the threshold; pKd (MAGI2_3, Q86UL8): below the threshold; pKd (PARD3B_1, Q8TEW8): below the threshold; pKd (NHERF2_2, Q15599): below the threshold; pKd (DLG2_2, Q15700): 3.59 |
| below the threshold | below the threshold | below the threshold | 3.74 | below the threshold | below the threshold | 4.62 | 3.94 | below the threshold | below the threshold | below the threshold | below the threshold | below the threshold | below the threshold | below the threshold | below the threshold | below the threshold | below the threshold | below the threshold | 3.68 | AAVENKVTDL [PLXNB1, O43157] | pKd (GOPC, Q9HD26): 3.65; pKd (APBA3_1, O96018): below the threshold; pKd (MAGI2_2, Q86UL8): below the threshold; pKd (SNTA1, Q13424): 4.33; pKd (MAGI2_3, Q86UL8): below the threshold; pKd (PARD3B_1, Q8TEW8): 3.54; pKd (NHERF2_2, Q15599): 4.07; pKd (DLG2_2, Q15700): 3.95 |

The next lines start with the binder.

| Binder | pKd (LIN7C, Q9NUP9) | pKd (TJP1_3, Q07157) | pKd (DLG5_1, Q8TDM6) | pKd (SNTG1, Q9NSN8) | pKd (GRID2IP_1, A4D2P6) | pKd (CASK, O14936) | pKd (SCRIB_1, Q14160) | pKd (DFNB31_3, Q9P202) | pKd (MPDZ_10, O75970) | pKd (GIPC2, Q8TF65) | pKd (FRMPD2_2, Q68DX3) | pKd (MPDZ_12, O75970) | pKd (IL16_4, Q14005) | pKd (DLG2_3, Q15700) | pKd (NHERF3_1, Q5T2W1) | pKd (Inadl_1, Q8NI35) | pKd (RAPGEF6, Q8TEU7) | pKd (GRIP2_6, Q9C0E4) | pKd (LDB3, O75112) | pKd (FRMPD4, Q14CM0) | also measured |
| --- | --- | --- | --- | --- | --- | --- | --- | --- | --- | --- | --- | --- | --- | --- | --- | --- | --- | --- | --- | --- | --- |
| KPGKGSETVV [FZD4, Q9ULV1] | 4.08 | below the threshold | 3.54 | 3.91 | below the threshold | below the threshold | 4.04 | below the threshold | below the threshold | 3.57 | below the threshold | below the threshold | below the threshold | 4.01 | below the threshold | below the threshold | below the threshold | below the threshold | below the threshold | below the threshold | pKd (GOPC, Q9HD26): 3.73; pKd (APBA3_1, O96018): below the threshold; pKd (MAGI2_2, Q86UL8): 5.22; pKd (SNTA1, Q13424): 4.6; pKd (MAGI2_3, Q86UL8): below the threshold; pKd (PARD3B_1, Q8TEW8): below the threshold; pKd (NHERF2_2, Q15599): below the threshold; pKd (DLG2_2, Q15700): 4.87 |
| TGLWKHETTV [ADGRA3, Q8IWK6] | 4.6 | below the threshold | below the threshold | 4.46 | below the threshold | below the threshold | 4.74 | 3.85 | below the threshold | 4.1 | 3.76 | below the threshold | below the threshold | 4.86 | 3.63 | below the threshold | below the threshold | 3.55 | below the threshold | below the threshold | pKd (GOPC, Q9HD26): 3.92; pKd (APBA3_1, O96018): below the threshold; pKd (MAGI2_2, Q86UL8): 5.22; pKd (SNTA1, Q13424): 4.58; pKd (MAGI2_3, Q86UL8): 4.02; pKd (PARD3B_1, Q8TEW8): below the threshold; pKd (NHERF2_2, Q15599): below the threshold; pKd (DLG2_2, Q15700): 5.4 |
| PYPTADHMLA [JUP, P14923] | 3.87 | below the threshold | below the threshold | below the threshold | below the threshold | below the threshold | below the threshold | 3.83 | below the threshold | below the threshold | below the threshold | below the threshold | below the threshold | 3.77 | below the threshold | below the threshold | below the threshold | below the threshold | below the threshold | below the threshold | pKd (GOPC, Q9HD26): below the threshold; pKd (APBA3_1, O96018): below the threshold; pKd (MAGI2_2, Q86UL8): below the threshold; pKd (SNTA1, Q13424): below the threshold; pKd (MAGI2_3, Q86UL8): below the threshold; pKd (PARD3B_1, Q8TEW8): below the threshold; pKd (NHERF2_2, Q15599): below the threshold; pKd (DLG2_2, Q15700): below the threshold |
